{
  "source": "the RNAGym collection of RNA variant scans (doi:10.1093/molbev/msab373)",
  "parents": {"B1": {"name": "Azoarcus group I ribozyme (parent)", "chain": "GUGCCUUGCGCCGGGAAACCACGCAAGGGAUGGUGUCAAAUUCGGCGAAACCUAAGCGCCCGCCCGGGCGUAUGGCAACGCCGAGCCAAGCUUCGGCGCCUGCGCCGAUGAAGGUGUAGAGACUAGACGGCACCCACCUAAGGCAAACGCUAUGGUGAAGGCAUAGUCCAGGGAGUGGCGAAAGUCACACAAACCGG"}},
  "data": [
    {"variants_of": "B1", "assay": "reverse-splicing fitness (ratio to wild type); higher = more active; in vitro selection; Mg2+ level not given", "outline": "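An in vitro group I ribozyme library with randomized positions was T7-transcribed and gel-purified. In triplicate, 10 pmol RNA in EPPS pH 7.5 was reacted with 50 pmoles of a 30-nt RNA substrate for 1 h at 37 °C across several added MgCl2 levels (1–48 mM), then stopped with EDTA. Products were reverse transcribed from a substrate-complementary primer, PCR-amplified and sequenced (HiSeq 4000). Fitness is a variant's read proportion after selection over that before, normalised to wild type.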", "values": [
      {"variant": "A111C A120U A145G C150A", "reverse-splicing fitness": 0.099},
      {"variant": "A111C A120U A145G C150U", "reverse-splicing fitness": 0.549},
      {"variant": "A111C A120U A145G C150G", "reverse-splicing fitness": 0.0721},
      {"variant": "A111C A120U A145G C150U C169G U176A", "reverse-splicing fitness": 0.0074},
      {"variant": "A111C A120U A145G C150U C169G U176C", "reverse-splicing fitness": 0.00994},
      {"variant": "A111C A120U A145G C150U C169G U176G", "reverse-splicing fitness": 0.00262},
      {"variant": "A111C A120U A145C C169A U176G", "reverse-splicing fitness": 0.00212},
      {"variant": "A111C A120U A145C C169A U176A", "reverse-splicing fitness": 0.00217},
      {"variant": "A111C A120U A145C C169A U176C", "reverse-splicing fitness": 0.00231},
      {"variant": "A111C A120U A145G C150G U176C", "reverse-splicing fitness": 0.0349},
      {"variant": "A111C A120U A145G C150G U176G", "reverse-splicing fitness": 0.00515},
      {"variant": "A111C A120U A145G C150G U176A", "reverse-splicing fitness": 0.0151},
      {"variant": "A111C A120U A145C C150G C169G", "reverse-splicing fitness": 0.00714},
      {"variant": "A111C A120U A145C C150G C169A", "reverse-splicing fitness": 0.00389},
      {"variant": "A111C A120U A145C C150G C169U", "reverse-splicing fitness": 0.0105},
      {"variant": "A111C A120U A145U C150A C169U U176A", "reverse-splicing fitness": 0.00386},
      {"variant": "A111C A120U A145U C150A C169U U176G", "reverse-splicing fitness": 0.00271},
      {"variant": "A111C A120U A145U C150A C169U U176C", "reverse-splicing fitness": 0.0049},
      {"variant": "A111C A120U C169U U176C", "reverse-splicing fitness": 0.0214},
      {"variant": "A111C A120U C169U U176A", "reverse-splicing fitness": 0.0143},
      {"variant": "A111C A120U C169U U176G", "reverse-splicing fitness": 0.00263},
      {"variant": "A111C A120U A145U C169U U176C", "reverse-splicing fitness": 0.0216},
      {"variant": "A111C A120U A145U C169U U176G", "reverse-splicing fitness": 0.00286},
      {"variant": "A111C A120U A145U C169U U176A", "reverse-splicing fitness": 0.0121},
      {"variant": "A111C A120U C150G C169U", "reverse-splicing fitness": 0.00955},
      {"variant": "A111C A120U C150G C169G", "reverse-splicing fitness": 0.00853},
      {"variant": "A111C A120U C150G C169A", "reverse-splicing fitness": 0.00675},
      {"variant": "A111C A120U A145U C150G C169U U176A", "reverse-splicing fitness": 0.00284},
      {"variant": "A111C A120U A145U C150G C169U U176C", "reverse-splicing fitness": 0.00398},
      {"variant": "A111C A120U A145U C150G C169U U176G", "reverse-splicing fitness": 0.00279},
      {"variant": "A111C A120U C150U C169G", "reverse-splicing fitness": 0.0296},
      {"variant": "A111C A120U C150U C169U", "reverse-splicing fitness": 0.0424},
      {"variant": "A111C A120U C150U C169A", "reverse-splicing fitness": 0.00639},
      {"variant": "A111C A120U C150G U176G", "reverse-splicing fitness": 0.00356},
      {"variant": "A111C A120U C150G U176C", "reverse-splicing fitness": 0.0217},
      {"variant": "A111C A120U C150G U176A", "reverse-splicing fitness": 0.0127},
      {"variant": "A111C A120U A145C C150A C169A", "reverse-splicing fitness": 0.00208},
      {"variant": "A111C A120U A145C C150A C169U", "reverse-splicing fitness": 0.00533},
      {"variant": "A111C A120U A145C C150A C169G", "reverse-splicing fitness": 0.0044},
      {"variant": "A111C A120U A145C C150U C169G U176G", "reverse-splicing fitness": 0.00229},
      {"variant": "A111C A120U A145C C150U C169G U176C", "reverse-splicing fitness": 0.00324},
      {"variant": "A111C A120U A145C C150U C169G U176A", "reverse-splicing fitness": 0.00383},
      {"variant": "A111C A120G C150G U176G", "reverse-splicing fitness": 0.00348},
      {"variant": "A111C A120G C150G U176A", "reverse-splicing fitness": 0.0109},
      {"variant": "A111C A120G C150G U176C", "reverse-splicing fitness": 0.0173},
      {"variant": "A111C A120U A145U C169A U176G", "reverse-splicing fitness": 0.00217},
      {"variant": "A111C A120U A145U C169A U176A", "reverse-splicing fitness": 0.00268},
      {"variant": "A111C A120U A145U C169A U176C", "reverse-splicing fitness": 0.00217},
      {"variant": "A111C A120G C150U", "reverse-splicing fitness": 0.0912},
      {"variant": "A111C A120G C169A U176A", "reverse-splicing fitness": 0.0221},
      {"variant": "A111C A120G C169A U176C", "reverse-splicing fitness": 0.0306},
      {"variant": "A111C A120G C169A U176G", "reverse-splicing fitness": 0.00418},
      {"variant": "A111C A120U A145U C150A C169G U176C", "reverse-splicing fitness": 0.00388},
      {"variant": "A111C A120U A145U C150A C169G U176G", "reverse-splicing fitness": 0.00199},
      {"variant": "A111C A120U A145U C150A C169G U176A", "reverse-splicing fitness": 0.00295},
      {"variant": "A111C A120U A145G C169U U176G", "reverse-splicing fitness": 0.00322},
      {"variant": "A111C A120U A145G C169U U176A", "reverse-splicing fitness": 0.0138},
      {"variant": "A111C A120U A145G C169U U176C", "reverse-splicing fitness": 0.0232},
      {"variant": "A111C A120U A145C C169G U176C", "reverse-splicing fitness": 0.00626},
      {"variant": "A111C A120U A145C C169G U176G", "reverse-splicing fitness": 0.0018},
      {"variant": "A111C A120U A145C C169G U176A", "reverse-splicing fitness": 0.00676},
      {"variant": "A111C A145C C150G C169G U176A", "reverse-splicing fitness": 0.00768},
      {"variant": "A111C A145C C150G C169G U176G", "reverse-splicing fitness": 0.0057},
      {"variant": "A111C A145C C150G C169G U176C", "reverse-splicing fitness": 0.00915},
      {"variant": "A111C A120U U176A", "reverse-splicing fitness": 0.22},
      {"variant": "A111C A120U U176C", "reverse-splicing fitness": 0.257},
      {"variant": "A111C A120U U176G", "reverse-splicing fitness": 0.0937},
      {"variant": "A111C A145C C150A C169G U176G", "reverse-splicing fitness": 0.00627},
      {"variant": "A111C A145C C150A C169G U176C", "reverse-splicing fitness": 0.0189},
      {"variant": "A111C A145C C150A C169G U176A", "reverse-splicing fitness": 0.0274},
      {"variant": "A111C A120U C150A U176G", "reverse-splicing fitness": 0.0153},
      {"variant": "A111C A120U C150A U176A", "reverse-splicing fitness": 0.0268},
      {"variant": "A111C A120U C150A U176C", "reverse-splicing fitness": 0.0376},
      {"variant": "A111C A120U A145U", "reverse-splicing fitness": 0.629},
      {"variant": "A111C A120U A145C", "reverse-splicing fitness": 0.598},
      {"variant": "A111C A120U A145G", "reverse-splicing fitness": 0.675},
      {"variant": "A111C A120U A145G C169G", "reverse-splicing fitness": 0.0583},
      {"variant": "A111C A120U A145G C169A", "reverse-splicing fitness": 0.00474},
      {"variant": "A111C A120U A145G C169U", "reverse-splicing fitness": 0.0781},
      {"variant": "A111C A145C C150A U176A", "reverse-splicing fitness": 0.0687},
      {"variant": "A111C A145C C150A U176G", "reverse-splicing fitness": 0.0323},
      {"variant": "A111C A145C C150A U176C", "reverse-splicing fitness": 0.104},
      {"variant": "A111C A120G C150U C169G U176A", "reverse-splicing fitness": 0.0233}
    ]}
  ]
}
